Several values for one entry are separate records, joined by “and”; a condition that tells them apart may be missing. Identical values can stand only once.
T1: CD133 protein (UniProt O43490 20-865, limits assumed)
T1 construct: whole, on cells; Presented on AC133/293 cells: paraformaldehyde-fixed in the cellular ELISA, unfixed in the phage FACS; also called CD133 antigen; AC133
T1 sequence (looked up): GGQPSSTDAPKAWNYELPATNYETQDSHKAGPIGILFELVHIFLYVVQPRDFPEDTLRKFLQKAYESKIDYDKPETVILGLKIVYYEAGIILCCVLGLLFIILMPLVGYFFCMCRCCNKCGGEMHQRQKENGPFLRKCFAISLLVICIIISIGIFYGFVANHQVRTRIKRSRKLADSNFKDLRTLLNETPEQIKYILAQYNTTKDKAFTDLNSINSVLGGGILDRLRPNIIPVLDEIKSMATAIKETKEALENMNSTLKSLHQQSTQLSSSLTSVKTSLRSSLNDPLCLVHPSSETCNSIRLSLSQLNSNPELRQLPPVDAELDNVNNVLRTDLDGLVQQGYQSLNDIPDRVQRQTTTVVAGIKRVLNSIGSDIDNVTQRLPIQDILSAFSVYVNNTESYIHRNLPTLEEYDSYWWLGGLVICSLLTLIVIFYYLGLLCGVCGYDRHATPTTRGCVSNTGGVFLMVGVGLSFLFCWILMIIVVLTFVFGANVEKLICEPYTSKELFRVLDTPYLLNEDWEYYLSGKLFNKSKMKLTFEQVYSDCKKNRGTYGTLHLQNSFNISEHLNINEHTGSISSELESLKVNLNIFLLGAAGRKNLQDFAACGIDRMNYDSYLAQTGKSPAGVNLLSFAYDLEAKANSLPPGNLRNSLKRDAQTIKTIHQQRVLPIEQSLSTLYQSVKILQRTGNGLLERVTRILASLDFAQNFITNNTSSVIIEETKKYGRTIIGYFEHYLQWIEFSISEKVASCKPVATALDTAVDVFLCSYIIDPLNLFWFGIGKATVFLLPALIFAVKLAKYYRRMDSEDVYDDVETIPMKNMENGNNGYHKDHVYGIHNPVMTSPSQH

T2: CD133 protein (UniProt O43490 20-865)
T2 chain: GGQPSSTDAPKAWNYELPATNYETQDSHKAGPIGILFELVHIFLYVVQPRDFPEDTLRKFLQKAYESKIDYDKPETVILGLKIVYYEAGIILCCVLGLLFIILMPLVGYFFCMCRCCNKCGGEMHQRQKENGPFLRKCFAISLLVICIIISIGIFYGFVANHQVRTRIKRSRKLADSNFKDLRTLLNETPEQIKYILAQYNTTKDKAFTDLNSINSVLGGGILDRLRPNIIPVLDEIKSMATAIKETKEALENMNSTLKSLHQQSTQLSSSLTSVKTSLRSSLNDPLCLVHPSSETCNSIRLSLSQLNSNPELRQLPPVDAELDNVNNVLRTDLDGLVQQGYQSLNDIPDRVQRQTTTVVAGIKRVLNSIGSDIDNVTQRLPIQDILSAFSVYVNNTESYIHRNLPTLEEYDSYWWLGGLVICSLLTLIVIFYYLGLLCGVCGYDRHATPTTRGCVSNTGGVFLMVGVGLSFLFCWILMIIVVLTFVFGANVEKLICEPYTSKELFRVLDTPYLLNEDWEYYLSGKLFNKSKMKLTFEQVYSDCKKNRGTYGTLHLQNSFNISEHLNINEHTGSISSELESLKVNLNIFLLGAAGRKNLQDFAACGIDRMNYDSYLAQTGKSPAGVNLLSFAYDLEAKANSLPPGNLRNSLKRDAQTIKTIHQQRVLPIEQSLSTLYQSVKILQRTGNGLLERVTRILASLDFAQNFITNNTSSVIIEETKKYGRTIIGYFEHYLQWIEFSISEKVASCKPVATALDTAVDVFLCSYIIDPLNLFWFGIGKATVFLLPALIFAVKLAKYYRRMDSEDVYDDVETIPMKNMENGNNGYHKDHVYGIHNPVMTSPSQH

B1: phage clone 27 (humanized single chain antibody derived from phage clone 27) (scFv)
scFv: DIQMTQSPKSLSMSVGDRVTITCKASENVDTYVSWYQQKPGKAPKVLIYGASNRYTGVPSRFSGSGSATDFTLTISSLQPEDFATYHCGQSYRYPLTFGQGTKVEIKGGGGSGGGGSGGGGSEVQLVQSGAEVKKPGASVKVSCKASGYSFTNYYVHWVKQAPGQGLEWMGYVDPFNGDFNYNQKFKDRVTLTVDTSTPTAYMELSSLTPEDTAVYYCARGGLDWYDTSYWYFDVWGQGTLVTVSS
notes: not shown: fusion to the phage coat protein; display format not described
B2: phage clone 29 (humanized single chain antibody derived from phage clone 29) (scFv)
scFv: DIQMTQSPRSLSVSVGDRVTITCKASENVDTYVSWYQQKPGKAPKVLIYGASNRYTGVPSRFTGSGSATDFTLTISSLQPEDFATYYCGQSYRYPLTFGQGTKVEIKGGGGSGGGGSGGGGSEVQLVQSGAEVKKPGASVKVSCKACGYSFTNYYVHWVKQAPGQGLEWMGYVDPFNGDLNYNQKFKDRVTLTVDTSTSTAYMELSSLTSEDTAVYYCARGGLHCYDTSYWYFDVWGQGTLVTVSS
notes: as for B1
B3: phage m1h harboring the mouse single chain sequence (scFv)
scFv: DILMTQSPKSMSMSLGERVTLSCKASENVDTYVSWYQQKPEQSPKVLIYGASNRYTGVPDRFTGSGSATDFSLTISNVQAEDLADYHCGQSYRYPLTFGAGTKLELKGGGGSGGGGSGGGGSEVQLQQSGPDLMKPGASVKISCKASGYSFTNYYVHWVKQSLDKSLEWIGYVDPFNGDFNYNQKFKDKATLTVDKSSSTAYMHLSSLTSEDSAVYYCARGGLDWYDTSYWYFDVWGAGTAVTVSS
notes: also called phage harboring the original mouse single chain antibody; not shown: fusion to the phage coat protein; display format not described
B4: W6B3H10 monoclonal antibody (antibody, V domains shown)
VH: EVQLQQSGPDLMKPGASVKISCKASGYSFTNYYVHWVKQSLDKSLEWIGYVDPFNGDFNYNQKFKDKATLTVDKSSSTAYMHLSSLTSEDSAVYYCARGGLDWYDTSYWYFDVWGAGTAVTVSS
VL: DILMTQSPKSMSMSLGERVTLSCKASENVDTYVSWYQQKPEQSPKVLIYGASNRYTGVPDRFTGSGSATDFSLTISNVQAEDLADYHCGQSYRYPLTFGAGTKLELK
notes: Mouse monoclonal antibody from hybridoma clone W6B3H10 (subclone of W6B3C1), with gamma heavy chain and kappa light chain; also called W6B3H10 mAb; parental mAb

Key:
CD133 protein [1] = biological target: T1, CD133 protein; assay: FACS of phage dilution series on AC133/293 cells
CD133 protein [2] = biological target: T2, CD133 protein; assay: FACS; panel A, Median FI
CD133 protein [3] = biological target: T2, CD133 protein; assay: FACS; panel A, Geo-Mean FI
CD133 protein [4] = biological target: T1, CD133 protein; assay: cellular ELISA on fixed AC133/293 cells
Method: 1×10⁵ cells in 0.2 ml of medium were added to each well and incubated o/n at 37° C., 5% CO₂ to allow cells to attach to the surface of the plate. The next day wells were washed once with 0.2 ml PBS and fixed with 0.1 ml 2% Paraformaldehyde (in PBS, pH 7.4) for 10-20 min at RT. Wells were washed with PBS-T (PBS+0.1% Tween-20) and blocked with either 1× RotiBlock or 3% milk in PBS-T for 1 hour at RT. After washing with PBS-T, serial dilutions of the respective antibody were added to the wells and incubated at RT for at least one hour while shaking. After washing with PBS-T, 0.1 ml of StrepMAb-Classic-HRP (1:10000 in PBS-T, lba BioTagnology, Göttingen, Germany) or of horseradish peroxidase linked anti-mouse IgG (1:10000 in PBS-T, Dianova, Hamburg, Germany) was added and incubated at RT for one hour with shaking. After washing with PBS-T, 0.1 ml of 1-Step Ultra TMB-ELISA substrate (Thermo Scientific, Braunschweig, Germany) was added and incubated until an adequate blue staining developed. To stop the reaction 0.1 ml 1 M H₂SO₄ was added to each well and absorbance at 450 nm and 595 nm as a reference was measured with an infinite F200 plate reader (TECAN, Männedorf, Switzerland). […] Signals were detected using an anti-mouse IgG-HRP antibody (1:10000 in PBS-T, Dianova, Hamburg, Germany). […]

Binder | Kd (CD133 protein [1]) | Kd (CD133 protein [2]) [nM] | Kd (CD133 protein [3]) [nM] | EC50 (CD133 protein [4]) [nM]
B1 | 0.0508 nM |  |  | 
B2 | 0.103 nM |  |  | 
B3 | 0.0256 nM and 0.0269 nM | 0.0185 | 0.0174 | 
B4 |  |  |  | 0.12

Reference: US20130130315A1 (ADVANCECOR, published 2013)
